Data from patent US20130244255A1 (published 2013).

How the values were obtained:
[1] = target: T1, GPNMB (CG56972) as expressed by human cell lines (human, UniProt Q14956 23-492); experiment: cell-based or functional assay
T1 sequence: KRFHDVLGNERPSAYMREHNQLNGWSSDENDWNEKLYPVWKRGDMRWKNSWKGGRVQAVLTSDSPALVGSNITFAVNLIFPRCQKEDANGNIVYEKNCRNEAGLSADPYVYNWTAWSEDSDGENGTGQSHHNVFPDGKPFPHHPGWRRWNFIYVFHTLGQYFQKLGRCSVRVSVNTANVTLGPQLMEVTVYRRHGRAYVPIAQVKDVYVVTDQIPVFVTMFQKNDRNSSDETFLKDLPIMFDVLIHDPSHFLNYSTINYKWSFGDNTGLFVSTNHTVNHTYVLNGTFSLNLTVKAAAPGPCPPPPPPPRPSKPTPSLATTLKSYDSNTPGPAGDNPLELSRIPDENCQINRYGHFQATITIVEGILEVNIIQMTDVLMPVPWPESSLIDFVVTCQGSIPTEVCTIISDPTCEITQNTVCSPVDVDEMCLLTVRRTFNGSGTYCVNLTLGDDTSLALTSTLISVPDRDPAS

[2] = target: T1, GPNMB (CG56972) as expressed by human …; experiment: FACS on LOXIMVI cells
[3] = target: T1, GPNMB (CG56972) as expressed by human …; experiment: FACS on SK-Mel 2 cells
[4] = target: T1, GPNMB (CG56972) as expressed by human …; experiment: FACS on SK-Mel 5 cells
[5] = target: T1, GPNMB (CG56972) as expressed by human …; experiment: FACS on T98G cells, CR011 10 ug/mL
Method: (§1) Quantitative analysis of CG56972 expression on the surface of cell lines was determined by flow cytometry (FACS). […] Cells were fixed in 1% paraformaldehyde/PBS and examined on a Becton Dickinson FACSCalibur flow cytometer. Data analysis was performed with Becton Dickinson Cell Quest software version 3.3 and the geometric mean fluorescence intensity ratio (GMR) was determined for each cell type.

[6] = target: T1, GPNMB (CG56972) as expressed by human …; experiment: FACS on K562 cells, antibody 1 ug/mL
Method: (§2) Lymphoma or leukemia derived cells were washed twice with ice-cold FACS buffer and resuspended at 1 million cells per assay tube. […] Cells were then washed 2-3 times and resuspended in 1 mL of ice-cold FACS buffer. R-PE-conjugated goat anti-human antibody at 1:100 dilution was added and cells were incubated on ice for 30 min. Cells were washed 3 times with 1 mL of ice-cold FACS buffer, fixed with 0.5-1 mL of 1% formaldehyde in PBS and analyzed by Flow Cytometry.

[7] = target: T1, GPNMB (CG56972) as expressed by human …; experiment: FACS on SF-295 cells, CR011 10 ug/mL
Method: as §1

[8] = target: T1, GPNMB (CG56972) as expressed by human …; experiment: FACS on SNB-78 cells, CR011 10 ug/mL
Method: as §1

[9] = target: T1, GPNMB (CG56972) as expressed by human …; experiment: FACS on WSU-NH2 cells, antibody 1 ug/mL
Method: as §2

B1: CR011 mAb 1.15.1 (IgG2) (antibody)
heavy: QVQLQESGPGLVKPSQTLSLTCTVSGGSISSFNYYWSWIRHHPGKGLEWIGYIYYSGSTYSNPSLKSRVTISVDTSKNQFSLTLSSVTAADTAVYYCARGYNWNYFDYWGQGTLVTVSSASTKGPSVFPLAPCSRSTSESTAALGCLVKDYFPEPVTVSWNSGALTSGVHTFPAVLQSSGLYSLSSVVTVPSSNFGTQTYTCNVDHKPSNTKVDKTVERKCCVECPPCPAPPVAGPSVFLFPPKPKDTLMISRTPEVTCVVVDVSHEDPEVQFNWYVDGVEVHNAKTKPREEQFNSTFRVVSVLTVVHQDWLNGKEYKCKVSNKGLPAPIEKTISKTKGQPREPQVYTLPPSREEMTKNQVSLTCLVKGFYPSDIAVEWESNGQPENNYKTTPPMLDSDGSFFLYSKLTVDKSRWQQGNVFSCSVMHEALHNHYTQKSLSLSPGK
VL: not shown
notes: also called CR011.1.15.1; CR011 IgG2
[1]
  killing of UACC-62 cells with saporin-conjugated secondary antibody (colony count): > 70%
[2]
  Geo Mean Ratio (relative to isotype): 1 ratio
[3]
  Geo Mean Ratio (relative to isotype): 16.5 ratio
[4]
  Geo Mean Ratio (relative to isotype): 5.7 ratio
[5]
  CR011 Fold Shift (GMR): 1.3 fold
[6]
  Geo Mean Ratio: 2.8 ratio
[7]
  CR011 Fold Shift (GMR): 1.8 fold
[8]
  CR011 Fold Shift (GMR): 8.6 fold
[9]
  Geo Mean Ratio: 1 ratio
